Values joined by “and” are separate entries in the source; they are usually repeats but may differ in a detail not shown here. Equal entries are not always repeated.
What was measured:
[1] = substrate: CCCCCCCCCCCCCC(=O)NCCCC[C@H](NC(=O)[C@H](CCCCN)NC(=O)[C@@H]1CCCN1C(=O)[C@H](CC(C)C)NC(=O)[C@H](C)NC(=O)[C@H](CCC(=O)O)NC(C)=O)C(=O)N[C@H](C(=O)NCC(=O)NCC(N)=O)[C@@H](C)O; assay: HPLC based activity assay; type: biochemical, human; conditions: other: HPLC; Sirt2; pH 7.8; 37.0 °C
Method: (§1) For the determination of kinetic constants for all sirtuin mediated reactions solutions containing 20 mM TRIS/HCl pH 7.8, 150 mM NaCl, 5 mM MgCl2 (assay-buffer), 500 μM NAD^+ and varying substrate concentrations (0.5–100 μM) were used. Deacylation was started by adding human sirtuin to reach a final concentration of 0.01–0.5 μM. Enzyme-catalyzed reaction was stopped using TFA (1% final concentration) after 1 min to 180 min of incubation at 37 °C depending on substrate reactivity. The cleavage rate of the different TNFα peptide derivatives was analyzed using analytical reversed phase HPLC. 40 to 80 μl of compounds or reaction solutions were injected and separated using a linear gradient from 5% to 95% solvent B within 6min. The product and substrate peaks were quantified using absorbance at 220 nm or 365 nm (absorption of 3-Nitrotyrosyl moiety). The peak areas were integrated and converted to initial velocity rates calculated from the ratio of product area to total peak area. Linear regression of conversions plotted against time yielded reaction rates in μM/min (relative conversion below 20% of substrate). Non-linear regression according to Michaelis-Menten of the reaction rates at different substrate concentrations yielded KM- and kcat-values using the program SigmaPlot 8 (Systat Software, San Jose, USA). All measurements were done in duplicates.
(§2) The reactions were performed with 0.1- 0.5 µM sirtuin, 500 µM NAD^+ and 50µM 13/16. All reactions were done in duplicates (n=2).

[2] = substrate: CC(=O)N[C@@H](CCC(=O)O)C(=O)N[C@@H](C)C(=O)N[C@@H](CC(C)C)C(=O)N1CCC[C@H]1C(=O)N[C@@H](CCCCN)C(=O)N[C@@H](CCCCNC(=O)CCCCCCCCCCNC(=O)c1ccccc1N)C(=O)N[C@@H](Cc1ccc(O)c([N+](=O)[O-])c1)C(=O)NCC(=O)NCC(N)=O; assay: HPLC based activity assay; type: biochemical, human; conditions: other: HPLC; Sirt2; pH 7.8; 37.0 °C
Method: as §1, §2

[3] = substrate: CC(=O)N[C@@H](CCC(=O)O)C(=O)N[C@@H](C)C(=O)N[C@@H](CC(C)C)C(=O)N1CCC[C@H]1C(=O)N[C@@H](CCCCN)C(=O)N[C@@H](CCCCNC(=O)CCCCCNC(=O)c1ccccc1N)C(=O)N[C@@H](Cc1ccc(O)c([N+](=O)[O-])c1)C(=O)NCC(=O)NCC(N)=O; assay: HPLC based activity assay; type: biochemical, human; conditions: other: HPLC; Sirt2; pH 7.8; 37.0 °C
Method: as §1, §2

[4] = substrate: CC(=O)N[C@@H](CCC(=O)O)C(=O)N[C@@H](C)C(=O)N[C@@H](CC(C)C)C(=O)N1CCC[C@H]1C(=O)N[C@@H](CCCCN)C(=O)N[C@@H](CCCCNC(=O)CCCCCCCCCCNC(=O)CN1C(=O)c2cccc3c(N(C)C)ccc(c23)C1=O)C(=O)N[C@@H](Cc1ccc(O)c([N+](=O)[O-])c1)C(=O)NCC(=O)NCC(N)=O; assay: purified protein, by the assay type; conditions: other: MTPR (microtiter plate reader); Sirt2; 37.0 °C
Method: (§3) Each reaction mixture contained assay-buffer, 0.5 mM NAD^+ and various peptide concentrations (0.1–100 μM) and was preincubated for 5 minutes at 37 °C. The reaction was started by adding human sirtuin (0.1–0.5 μM) and observed for 5–10 minutes. Product formation could be monitored by increase of relative fluorescence. This signal was converted into product concentration via calibration lines. The slope of the linear regression of product formation against time yielded the reaction velocity rates in μM/s. KM and kcat were obtained by non-linear regression according to Michaelis-Menten. All measurements were done in duplicates. For determination of reaction velocity rates in μM/s calibration lines were necessary. […] The reaction mixture was analyzed with HPLC, to control if the entire peptide substrate was turned to product.
(§4) The reactions (total volume 100 μl) were measured in black low-binding 96-well microtiter plates (NUNC). Assay-buffer, 500 μM NAD^+ and 0.07–200 μM peptide substrate were pre-incubated at 37 °C for 5 min. The reaction was started by adding human sirtuin (0.01–0.5 μM). The signals were converted into product concentration via calibration lines and the resulting data were evaluated as described above (single fluorescence measurement). […] All measurements were done in duplicates. The reaction mixture for the calibration lines was prepared as described for the single fluorescence measurements.

[5] = substrate: CC(=O)N[C@@H](CCC(=O)O)C(=O)N[C@@H](C)C(=O)N[C@@H](CC(C)C)C(=O)N1CCC[C@H]1C(=O)N[C@@H](CCCCN)C(=O)N[C@@H](CCCCNC(=O)CCCCCNC(=O)CCCCCNC(=O)c1ccccc1N)C(=O)N[C@@H](Cc1ccc(O)c([N+](=O)[O-])c1)C(=O)NCC(=O)NCC(N)=O; assay: purified protein, by the assay type; conditions: other: Sirt2; measured using MTP fluorescence reader (footnote b); 37.0 °C
Method: as §3, §4

[6] = substrate: CC(=O)N[C@@H](CCC(=O)O)C(=O)N[C@@H](C)C(=O)N[C@@H](CC(C)C)C(=O)N1CCC[C@H]1C(=O)N[C@@H](CCCCN)C(=O)N[C@@H](CCCCNC(=O)CCCCCCCNC(=O)c1ccccc1N)C(=O)N[C@@H](Cc1ccc(O)c([N+](=O)[O-])c1)C(=O)NCC(=O)NCC(N)=O; assay: purified protein, by the assay type; conditions: other: Sirt2; measured using MTP fluorescence reader (footnote b); 37.0 °C
Method: as §3, §4

[7] = substrate: COc1ccc2c(C[C@H](NC(=O)[C@H](CCCCNC(=O)CCCCCCCCCCNC(=O)c3cc([N+](=O)[O-])ccc3N)NC(=O)[C@H](CCCCN)NC(=O)[C@@H]3CCCN3C(=O)[C@H](CC(C)C)NC(=O)[C@H](C)NC(=O)[C@H](CCC(=O)O)NC(C)=O)C(=O)NCC(=O)NCC(N)=O)cc(=O)oc2c1; assay: purified protein, by the assay type; conditions: other: MTPR (microtiter plate reader); Sirt2; 37.0 °C
Method: as §3, §4

[8] = substrate: CC(=O)N[C@@H](CCC(=O)O)C(=O)N[C@@H](C)C(=O)N[C@@H](CC(C)C)C(=O)N1CCC[C@H]1C(=O)N[C@@H](CCCCN)C(=O)N[C@@H](CCCCNC(=O)CCCCCCCCCCNC(=O)c1ccccc1N)C(=O)N[C@@H](Cc1ccc(O)c([N+](=O)[O-])c1)C(=O)NCC(=O)NCC(N)=O; assay: purified protein, by the assay type; conditions: other: Sirt2, measured using fluorescence spectrophotometer (footnote a), 0.5 mM NAD+, 37 °C
Method: as §3, §4

[9] = substrate: CC(=O)N[C@@H](CCC(=O)O)C(=O)N[C@@H](C)C(=O)N[C@@H](CC(C)C)C(=O)N1CCC[C@H]1C(=O)N[C@@H](CCCCN)C(=O)N[C@@H](CCCCNC(=O)CCCCCNC(=O)c1ccccc1N)C(=O)N[C@@H](Cc1ccc(O)c([N+](=O)[O-])c1)C(=O)NCC(=O)NCC(N)=O; assay: purified protein, by the assay type; conditions: other: Sirt2, measured using fluorescence spectrophotometer (footnote a), 0.5 mM NAD+, 37 °C
Method: as §3, §4

B1: Sirt2 (Homo sapiens) (protein)
chain: MAEPDPSHPLETQAGKVQEAQDSDSDSEGGAAGGEADMDFLRNLFSQTLSLGSQKERLLDELTLEGVARYMQSERCRRVICLVGAGISTSAGIPDFRSPSTGLYDNLEKYHLPYPEAIFEISYFKKHPEPFFALAKELYPGQFKPTICHYFMRLLKDKGLLLRCYTQNIDTLERIAGLEQEDLVEAHGTFYTSHCVSASCRHEYPLSWMKEKIFSEVTPKCEDCQSLVKPDIVFFGESLPARFFSCMQSDFLKVDLLLVMGTSLQVQPFASLISKAPLSTPRLLINKEKAGQSDPFLGMIMGLGGGMDFDSKKAYRDVAWLGECDQGCLALAELLGWKKELEDLVRREHASIDAQSGAGVPNPSTSASPKKSPPPAKDEARTTEREKPQ
notes: made in house
- Km [1]: 0.7 ± 0.1 µM
- kcat [1]: 3.7∙10^-2 ± 0.1∙10^-2 s^-1
- kcat/Km [1]: 5.30∙10^4 M^-1s^-1
- Km [2]: 0.3 ± 0.04 µM
- kcat [2]: 3.9∙10^-2 ± 0.1∙10^-2 s^-1
- kcat/Km [2]: 1.18∙10^5 M^-1s^-1
- Km [3]: 26.8 ± 2.7 µM
- kcat [3]: 3.9∙10^-3 ± 0.2∙10^-3 s^-1
- kcat/Km [3]: 1.46∙10^2 M^-1s^-1
- Km [4]: 7.5 ± 1.5 µM
- kcat [4]: 2.6∙10^-3 ± 0.2∙10^-3 s^-1
- kcat/Km [4]: 3.42∙10^2 M^-1s^-1
- Km [5]: 15.3 ± 2.7 µM
- kcat/Km [5]: 156 M⁻¹ s⁻¹
- Km [6]: 1.2 ± 0.1 µM
- kcat/Km [6]: 38600 M⁻¹ s⁻¹
- Km [7]: 0.8 ± 0.1 µM
- kcat [7]: 9.6∙10^-2 ± 0.5∙10^-2 s^-1
- kcat/Km [7]: 1.25∙10^5 M^-1s^-1
- Km [8]: 0.1 ± 0.02 µM and 0.12 ± 0.02 µM
- Km [9]: 17.7 ± 1.5 µM

Source: publication PMC4778124, “A continuous sirtuin activity assay without any coupling to enzymatic or chemical reactions” (Scientific Reports, 2016)
